Data published in IntAct's records for PubMed 11741956.

B1: Proto-oncogene tyrosine-protein kinase LCK (Mus musculus), P06240 (parent)
chain: MGCVCSSNPEDDWMENIDVCENCHYPIVPLDSKISLPIRNGSEVRDPLVTYEGSLPPASPLQDNLVIALHSYEPSHDGDLGFEKGEQLRILEQSGEWWKAQSLTTGQEGFIPFNFVAKANSLEPEPWFFKNLSRKDAERQLLAPGNTHGSFLIRESESTAGSFSLSVRDFDQNQGEVVKHYKIRNLDNGGFYISPRITFPGLHDLVRHYTNASDGLCTKLSRPCQTQKPQKPWWEDEWEVPRETLKLVERLGAGQFGEVWMGYYNGHTKVAVKSLKQGSMSPDAFLAEANLMKQLQHPRLVRLYAVVTQEPIYIITEYMENGSLVDFLKTPSGIKLNVNKLLDMAAQIAEGMAFIEEQNYIHRDLRAANILVSDTLSCKIADFGLARLIEDNEYTAREGAKFPIKWTAPEAINYGTFTIKSDVWSFGILLTEIVTHGRIPYPGMTNPEVIQNLERGYRMVRPDNCPEELYHLMMLCWKERPEDRPTFDYLRSVLDDFFTATEGQYQPQP

Variants of: B1
Conditions: with cbl_human CBL

Row | effect of a mutation on the interaction | Variant
1 | decreasing interaction | W97A
